# Measured values: US20210122788A1
# Legend:
# [1] = biological target: human BTLA Fc (human) (UniProt Q7Z6A9); assay: SPR, BTLA Fc immobilised on CM5, bivalent fit
# [2] = biological target: human BTLA Fc (human) (UniProt Q7Z6A9); assay: SPR, BTLA Fc immobilised on CM5, monovalent (Langmuir) fit
substance,measurement,setting,value
rhesus CMV UL144 Fc (Fc fusion),ka1 (bivalent analysis),[1],16600 M⁻¹ s⁻¹
same,kd1 (bivalent analysis),[1],0.031 s⁻¹
same,kd2 (bivalent analysis),[1],0.129 s⁻¹
same,Kd,[2],1300 nM
same,koff,[2],0.0295 s⁻¹
same,kon,[2],22800 M⁻¹ s⁻¹
